Literature values as cited in US20070225245A1, “Viral vector driven mutant bacterial cytosine deaminase gene and uses thereof” (priority 1998, published 2007).

B1: yCD: yeast cytosine deaminase (protein, UniProt Q12178 1-158, looked up)
Cytosine deaminase: MVTGGMASKWDQKGMDIAYEEAALGYKEGGVPIGGCLINNKDGSVLGRGHNMRFQKGSATLHGEISTLENCGRLEGKVYKDTTLYTTLSPCDMCTGAIIMYGIPRCVVGENVNFKSKGEKYLQTRGHEVVVVDDERCKKIMKQFIDERPQDWFEDIGE
B2: bCD: wild type bacterial cytosine deaminase (protein, UniProt P25524 2-427, looked up)
Cytosine deaminase: SNNALQTIINARLPGEEGLWQIHLQDGKISAIDAQSGVMPITENSLDAEQGLVIPPFVEPHIHLDTTQTAGQPNWNQSGTLFEGIERWAERKALLTHDDVKQRAWQTLKWQIANGIQHVRTHVDVSDATLTALKAMLEVKQEVAPWIDLQIVAFPQEGILSYPNGEALLEEALRLGADVVGAIPHFEFTREYGVESLHKTFALAQKYDRLIDVHCDEIDDEQSRFVETVAALAHHEGMGARVTASHTTAMHSYNGAYTSRLFRLLKMSGINFVANPLVNIHLQGRFDTYPKRRGITRVKEMLESGINVCFGHDDVFDPWYPLGTANMLQVLHMGLHVCQLMGYGQINDGLNLITHHSARTLNLQDYGIAAGNSANLIILPAENGFDALRRQVPVRYSVRGGKVIASTQPAQTTVYLEQPEAIDYKR

Conditions: cited from earlier work

Row | Molecule | enzyme activity (by 96 h at 37° C.) | retained activity (at 168 h)
1 | B1 | loses all activity | 
2 | B2 |  | 100%
